Drawing on paper PMC6305486, this text covers Kd for 1 molecule.

The assay addresses FtsQ_(50–276), P06136. The assay can be described thus: BLI. The conditions noted are these: chain shown with the change; GST-e5-FtsB (mutant) in complex with k5-FtsL immobilized; FtsQ analyte 0-60 µM; parent: 0.24 ± 0.01.

Chain of FtsQ_(50–276), P06136 (P06136 50-276): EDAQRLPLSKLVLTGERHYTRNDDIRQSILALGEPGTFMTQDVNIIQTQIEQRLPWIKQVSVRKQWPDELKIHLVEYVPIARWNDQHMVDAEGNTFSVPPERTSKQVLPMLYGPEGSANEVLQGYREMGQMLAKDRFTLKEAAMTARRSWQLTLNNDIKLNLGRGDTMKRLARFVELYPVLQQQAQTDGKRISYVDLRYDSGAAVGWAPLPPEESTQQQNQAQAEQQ

B1: GST-fused e5-FtsB_(25–103)/k5-FtsL_(64–121) complex (WT), P0A6S5;P0AEN4 E68A (protein)
chain 1: GIHDYTRVNDDVAAQQATNAKLKARNDQLFAEIDDLNGGQEALAERARNELSMTRPGETFYRLVPDASKRAQSAGQNNR
chain 2: TAQREQLVLERDALDIEWRNLILEENALGDHSRVERIATEKLQMQHVDPSQENIVVQK
In the case of B1, the Kd is 2.4 µM.

For orientation: Kd means the concentration at which binding is half-saturated.
